Measured values as given in publication PMC3724679, “Biochemical Characterization of a Polysialyltransferase from Mannheimia haemolytica A2 and Comparison to Other Bacterial Polysialyltransferases” (PLoS ONE, 2013).

Tested on: CC(=O)N[C@H]1[C@H]([C@H](O)[C@H](O)CO)O[C@](OP(=O)(O)OC[C@H]2O[C@@H](n3ccc(N)nc3=O)[C@H](O)[C@@H]2O)(C(=O)O)C[C@@H]1O
Assay: purified protein
Conditions: 0.5 mM GD3-FCHASE acceptor, 50 mM HEPES pH 7.5, 10 mM MgCl2, 30°C, CMP-Neu5Ac varied 0.25-20 mM

PSTMh (MalE-Δ20PSTMh) (Mannheimia haemolytica)
Km: 1.1 ± 0.05 mM
Vmax: 1520 µmol/min/mg
